The target of this experiment is T1, Trp1 as expressed by B16 melanoma cells (UniProt P07147 25-537, limits assumed).
T1 construct: whole, on cells; also called Tyrosinase-related protein 1; TYRP1
The experiment is described as follows: flow cytometry on permeabilized B16 cells, detection with anti-mouse IgG PE. The source says: FIG. 2 depicts Trp1 expression profile. B16, B78H1, and B78H1 engineered to express Trp1 on the surface were stained with TA99, TA99 single chain variable region fused to an Fc domain, or isotype control. The cell lines were washed and stained with anti-mouse IgG PE and further analyzed by flow cytometry. B16 was permeabilized before staining since the level of Trp1 expression is suboptimal in the surface in vitro.
An scFv that specifically binds to a mouse Trp1 polypeptide and a human Trp1 polypeptide was generated from a murine monoclonal antibody TA99 that was generated from the TA99 antibody disclosed in International Patent Publication No. WO96/40249. This scFv was cloned into an eGFP cassette. The binding specificity of this scFv to the Trp1 polypeptide was evaluated using a soluble protein comprising this scFv and a Fc domain fused to the scFv. The binding specificity of the scFv-Fc fusion protein to B16 melanoma cells (expressing Trp1), a B16 variant B78H1 (not expressing Trp1), and B78H1-Trp1 (B78H1 engineered to express TRP1 on the surface) was evaluated by flow cytometry. […]
Background: Flow cytometry measures light scatter and fluorescence of single cells or particles in a stream.

B1: soluble protein comprising the TA99-derived scFv and a Fc domain fused to the scFv (Fc fusion, not shown: a dimerising Fc or GST)
scFv: EVQLQQSGAELVRPGALVKLSCKTSGFNIKDYFLHWVRQRPDQGLEWIGWINPDNGNTVYDPKFQGTASLTADTSSNTVYLQLSGLTSEDTAVYFCTRRDYTYEKAALDYWGQGASVIVSSGGGGSGGGGSGGGGSAFQMSQSPASLSASVGETVTITCRASGNIYNYLAWYQQKQGKSPHLLVYDAKTLADGVPSRFSGSGSGTQYSLKISSLQTEDSGNYYCQHFWSLPFTFGSGTKLEIKAAA
notes: also called scFv-Fc fusion protein; TA99 single chain variable region fused to an Fc domain
With B1, the binding result was “binds”.
